In publication PMC3737563, “Investigation of DNA sequence recognition by a streptomycete MarR family transcriptional regulator through surface plasmon resonance and X-ray crystallography” (Nucleic Acids Research, 2013):

T1: SCO3205 (MarR family regulator) (Streptomyces coelicolor, UniProt Q9KYU1 1-163)
T1 sequence: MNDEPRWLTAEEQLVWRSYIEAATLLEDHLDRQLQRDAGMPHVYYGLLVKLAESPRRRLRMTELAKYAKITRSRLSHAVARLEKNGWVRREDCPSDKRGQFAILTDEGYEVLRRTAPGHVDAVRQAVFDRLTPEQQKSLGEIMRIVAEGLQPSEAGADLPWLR


What was measured:
[1] = biological target: the molecule itself; experiment: not stated; purified SCO3205 in solution; the method is told only in the Supplementary Methods
[2] = biological target: T1, SCO3205 (MarR family regulator); experiment: crystal structure; 2.8 A; one dimer per duplex; SPR (ReDCaT, Biacore T200) in HBS-EP+: 10 mM HEPES pH 7.4, 150 mM NaCl, 3 mM EDTA, 0.05% P20, 20°C; settings: protein: recombinant; tags: N-terminal His tag plus TEV site, not removed; chain copies: 2; blunt; self-complementary, 2 copies

Row | Binder | stoichiometry N [1] | binding result [2]
1 | SCO3205, MarR family transcriptional regulator from Streptomyces coelicolor (natural protein, UniProt Q9KYU1 1-163, looked up, SCO3205, MarR family transcriptional regulator, Streptomyces coelicolor; the tag was not removed for any experiment; Total deduced molecular mass 20523 Da; also called MFR; source: E. coli BL21 (DE3), purified (HisTrap nickel column, Superdex 75 gel filtration); not shown: His tag, N-terminal, kept) MNDEPRWLTAEEQLVWRSYIEAATLLEDHLDRQLQRDAGMPHVYYGLLVKLAESPRRRLRMTELAKYAKITRSRLSHAVARLEKNGWVRREDCPSDKRGQFAILTDEGYEVLRRTAPGHVDAVRQAVFDRLTPEQQKSLGEIMRIVAEGLQPSEAGADLPWLR | 2 | 
2 | symmetrized O3204 22-mer (dsDNA) DNA 1: AAAGATTGAGATCTCAATCTTT DNA 2: AAAGATTGAGATCTCAATCTTT |  | binds
